This note sets out measurements from paper PMC11548252.

In data set [1] the target is SARS-CoV-2 Spike protein (SARS-CoV-2) (UniProt P0DTC2). The experiment in a line: fluorescence dequenching (Cy5/BHQ2).
The target is the same in data set [2]. The experiment in a line: fluorescence dequenching (Cy5/BHQ2). The source holds these as a separate data set.
Data set [3] shares this target. Briefly: ligand-responsive LAMP, colorimetric (indirect). The note with it: 5'-phosphate.

Where two headings read alike, the source gives them in different places.

In the case of “CAGCACCGACCTTGTGCTTTGGGAGTGCTGGTCCAAGGGCGTTAATGGAC [EY615QF]”, the binding (% fluorescence increase) in data set [1] was found to be 31; in data set [2] it was 46.
Take “CAGCACCGACCTTGTGCTTTGGGAGTGCTGGTCCAAGGGCGTTAATGGAC [EY615]”: the binding (% increase of Abs430/Abs560) in data set [3] is 81.
